Experimental data from patent publication US20170051021A1, “PEPTIDE AGONISTS OF TOLL-LIKE RECEPTOR 5 LIGAND AND METHOD OF USE” (priority 2014, published 2017).

Tests used:
Wistar rats = test: In vivo protective role against lethal irradiation, survival of Wistar rats; design: species or system rat; details: 0.1 mg/kg s.c. one hour before single total dose of 9.6 Gy, FIG. 16
Method: One hour later, rats were irradiated for about 30 min with a single total dose of 9.6 Gy and survival was monitored daily (FIG. 16).

NF-kB = NF-kB reporter system luciferase assay in transiently transfected CACO-2 cells; assay type: cell-based; details: CACO-2 cells transfected with mock vector delta NFkB-Luc
Method: All transfections were performed in triplicate in 24-well plates. Approximately 2×10^5 CACO-2 cells per well were seeded 24 h before transfection. Following the manufacturer's instructions, plasmids were transfected into cells using FUGENE transfection reagent (Promega, Medison, Wis.). Briefly, 0.8 μg of reporter plasmids carrying different NF-kB responsive elements (IL8-Luc, IGkB-Luc) plus 0.05 μg of pCMV-LacZ vector were diluted with Opti-MEM and then mixed with diluted liposomes. After 20 min of incubation at room temperature, the mixtures were added to each well. […] Each experiment was conducted a minimum of three times.

B1: VINCRO1 (protein)
chain: LTIQVGANDGETIDIDLKQINSQTLSSSGSSGSSGSSIDAALAQVDALRSDLGAVQNRFNSA
modifications: left off: small tags and cut ends
Q: With B1 as the molecule, how does the “protection from lethal irradiation (survival)” value (Wistar rats) read?
A: The value was “protect Wistar rats from lethal irradiation”.

Q: And the “luciferase activity with mock vector (specificity control)” value (NF-kB)?
A: Its value is “no luciferase activity”.
